Like-named read-outs stand apart in the source and are kept apart here.
How the values were obtained:
menin T349M = test system: menin T349M; set-up: method as in PMID 36922589; details: versus wild-type menin; cited from earlier work
menin^G331D = biological target: T1, menin^G331D (Homo sapiens, UniProt O00255, G326D); assay: ITC binding of MLL1 fragments to menin^G331D
T1 construct: The gene encoding full-length human menin was cloned into a pET32a expression vector; thioredoxin-His6 (cleaved yes); made in house; host or cells: E. coli BL21(DE3)
T1 sequence (O00255 1-610 G326D): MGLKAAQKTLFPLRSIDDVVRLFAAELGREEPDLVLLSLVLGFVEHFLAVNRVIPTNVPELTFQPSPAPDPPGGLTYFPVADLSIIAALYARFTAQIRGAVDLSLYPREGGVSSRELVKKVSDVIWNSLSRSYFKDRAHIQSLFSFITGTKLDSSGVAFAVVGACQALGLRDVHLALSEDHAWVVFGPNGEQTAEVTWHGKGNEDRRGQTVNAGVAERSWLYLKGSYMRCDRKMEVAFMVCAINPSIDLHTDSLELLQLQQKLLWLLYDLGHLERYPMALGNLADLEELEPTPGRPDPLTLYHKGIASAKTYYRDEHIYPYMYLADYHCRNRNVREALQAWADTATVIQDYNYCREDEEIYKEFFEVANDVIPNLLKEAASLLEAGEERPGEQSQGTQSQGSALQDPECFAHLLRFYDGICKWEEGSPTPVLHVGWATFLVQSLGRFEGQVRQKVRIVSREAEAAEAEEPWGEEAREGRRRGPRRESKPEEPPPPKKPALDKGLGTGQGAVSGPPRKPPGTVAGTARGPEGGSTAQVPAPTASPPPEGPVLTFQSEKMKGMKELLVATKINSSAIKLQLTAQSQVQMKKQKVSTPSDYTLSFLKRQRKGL
Protocol: (§1) Menin and MLL1 fragments were dialyzed at 4 °C against a 50 mM sodium phosphate pH 7.5, 50 mM NaCl, 1 mM TCEP buffer, and degassed prior to measurement. The titrations were performed using the VP-ITC system (MicroCal) at 25 °C. The calorimetric cell, which contained menin (concentrations in the 5–10 μM range), was titrated with the MLL1^160 and MLL1^4-15 derived peptides (concentration range 40–100 μM) injected in 10-μL aliquots. Data was analyzed using Origin 7.0 (OriginLab) to obtain Kd, stoichiometry, entropy, and enthalpy ([2]). Experiments with WT, M327I, T349M, and G331R menin and MLL1^160 or MLL1^4-15 were run in duplicate. Experiments with G331D menin and MLL1^160 were run in duplicate while experiments with G331D and MLL1^4-15 were run in quadruplicate.

menin^G331R = biological target: T2, menin^G331R (Homo sapiens, UniProt O00255, G326R); assay: ITC binding of MLL1 fragments to menin^G331R
T2 construct: The gene encoding full-length human menin was cloned into a pET32a expression vector; thioredoxin-His6 (cleaved yes); made in house; host or cells: E. coli BL21(DE3)
T2 sequence (O00255 1-610 G326R): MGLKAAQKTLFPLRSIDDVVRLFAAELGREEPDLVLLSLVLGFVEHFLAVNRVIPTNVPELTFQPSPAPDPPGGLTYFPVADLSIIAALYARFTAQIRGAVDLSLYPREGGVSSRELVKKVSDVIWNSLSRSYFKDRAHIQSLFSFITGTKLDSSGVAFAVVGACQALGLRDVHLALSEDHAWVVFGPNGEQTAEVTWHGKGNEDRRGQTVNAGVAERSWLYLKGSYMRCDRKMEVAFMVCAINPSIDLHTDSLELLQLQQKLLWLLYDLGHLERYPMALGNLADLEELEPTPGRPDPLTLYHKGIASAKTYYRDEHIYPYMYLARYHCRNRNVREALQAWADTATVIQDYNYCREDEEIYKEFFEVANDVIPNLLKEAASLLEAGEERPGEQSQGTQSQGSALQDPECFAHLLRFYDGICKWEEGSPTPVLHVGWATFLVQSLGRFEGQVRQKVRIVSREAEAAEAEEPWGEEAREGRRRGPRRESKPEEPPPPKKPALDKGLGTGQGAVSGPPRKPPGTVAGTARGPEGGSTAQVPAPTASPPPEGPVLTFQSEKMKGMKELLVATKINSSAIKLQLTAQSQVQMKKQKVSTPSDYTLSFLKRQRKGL
Protocol: as §1

[1] = ITC, representative binding isotherm Fig. 1A, 25 °C, read-out: Kd

| Molecule | reduction of binding by T349M mutation (menin T349M) [fold] | Kd (menin^G331D; ITC summary Fig. 1B, * n = 2, ^ n = 4, read-out: G331D Kd (nM), ITC) [nM] | Kd (menin^G331D; [1]) [nM] | Kd (menin^G331R; ITC summary Fig. 1B, values marked *, n = 2, read-out: G331R Kd (nM), ITC) [nM] | Kd (menin^G331R; [1]) [nM] |
| --- | --- | --- | --- | --- | --- |
| CCN(C(=O)c1cc(F)ccc1Oc1cncnc1N1CC2(CCN(C[C@H]3CC[C@H](NS(=O)(=O)CC)CC3)CC2)C1)C(C)C [Revumenib, reference compound] | 111 | – | – | – | – |
| MLL1^160: N-terminal 160 amino acids of human MLL1, Cys2 mutated to alanine, recombinant (protein, The printed 'Cys2' is the single N-terminal cysteine, Cys5 in the entry (peptide S4-A5-R6); Trx-His6 tag cleaved) MAHSARWRFPARPGTTGGGGGGGRRGLGGAPRQRVPALLLPPGPPVGGGGPGAPPSPPAVAAAAAAAGSSGAGVPGGAAAASAASSSSASSSSSSSSSASSGPALLRVGPGFDAALQVSAAIGTNLRRFRAVFGESGGGGGSGEDEQFLGFGSDEEVRVR | – | 1.4 ± 0.7 | 1.4 ± 0.7 | 1.3 ± 0.3 | 1.1 ± 0.3 |

Source: paper PMC11490872, “Drug-resistant menin variants retain high binding affinity and interactions with MLL1” (The Journal of Biological Chemistry, 2024)
